From paper PMC9929924, “Phosphorylation of the receptor protein Pex5p modulates import of proteins into peroxisomes” (Biological Chemistry, 2022) come the findings set out here.

T1: Pex5p-S507/523D, recombinant His6-tagged phospho-mimicking mutant (S. cerevisiae, UniProt P35056 1-612, S507D | S523D)
T1 sequence: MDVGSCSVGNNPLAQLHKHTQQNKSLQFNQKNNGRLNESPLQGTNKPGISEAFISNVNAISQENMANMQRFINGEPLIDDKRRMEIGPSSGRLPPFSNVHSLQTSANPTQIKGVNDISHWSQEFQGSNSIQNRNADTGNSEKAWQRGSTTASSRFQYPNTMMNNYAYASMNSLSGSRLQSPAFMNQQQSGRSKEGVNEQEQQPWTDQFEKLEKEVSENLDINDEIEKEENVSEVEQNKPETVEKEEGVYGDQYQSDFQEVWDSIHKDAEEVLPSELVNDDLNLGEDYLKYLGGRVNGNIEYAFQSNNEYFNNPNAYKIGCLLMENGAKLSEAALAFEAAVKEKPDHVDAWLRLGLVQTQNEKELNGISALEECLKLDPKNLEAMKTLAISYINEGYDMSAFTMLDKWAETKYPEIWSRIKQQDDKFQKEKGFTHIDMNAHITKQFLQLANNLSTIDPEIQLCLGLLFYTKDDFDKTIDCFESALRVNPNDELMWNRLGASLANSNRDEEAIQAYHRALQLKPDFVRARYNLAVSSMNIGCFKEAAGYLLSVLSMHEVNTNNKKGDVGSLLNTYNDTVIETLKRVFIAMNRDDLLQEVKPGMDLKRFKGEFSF

T2: Pex5p wildtype, recombinant His6-tagged (HisPex5p) (S. cerevisiae, UniProt P35056 1-612)
T2 chain: T1 sequence with D507S, D523S

B1: Pex5p wildtype, recombinant His6-tagged (HisPex5p) (natural protein, S. cerevisiae, UniProt P35056 1-612, looked up)
chain: T1 sequence with D507S, D523S
notes: Pex5p, PTS1 receptor of Saccharomyces cerevisiae, UniProtKB P35056, full length; No cleavage of the His tag is described; the native MS mass of the monomer is printed as 71.459 kDa; also called Pex5p^WT; source: E. coli BL21 RIL (DE3), purified (Ni-NTA, MonoQ anion exchange, SEC)
B2: Pex5p-S507/523D, recombinant His6-tagged phospho-mimicking mutant (natural protein, S. cerevisiae, UniProt P35056 1-612, looked up)
chain: T1 sequence
notes: Pex5p, PTS1 receptor of Saccharomyces cerevisiae, UniProtKB P35056, full length, with S507D and S523D; No cleavage of the His tag is described; the native MS mass of the monomer is printed as 71.515 kDa; also called Pex5p^2D; Pex5p-S507D/523D; source: E. coli BL21 RIL (DE3), purified (Ni-NTA, MonoQ anion exchange, SEC)
B3: Pcs60p, peroxisomal oxalyl-CoA synthetase, recombinant (natural protein, S. cerevisiae, UniProt P38137 1-543, looked up)
chain: MTSAATVTASFNDTFSVSDNVAVIVPETDTQVTYRDLSHMVGHFQTMFTNPNSPLYGAVFRQDTVAISMRNGLEFIVAFLGATMDAKIGAPLNPNYKEKEFNFYLNDLKSKAICVPKGTTKLQSSEILKSASTFGCFIVELAFDATRFRVEYDIYSPEDNYKRVIYRSLNNAKFVNTNPVKFPGFARSSDVALILHTSGTTSTPKTVPLLHLNIVRSTLNIANTYKLTPLDRSYVVMPLFHVHGLIGVLLSTFRTQGSVVVPDGFHPKLFWDQFVKYNCNWFSCVPTISMIMLNMPKPNPFPHIRFIRSCSSALAPATFHKLEKEFNAPVLEAYAMTEASHQMTSNNLPPGKRKPGTVGQPQGVTVVILDDNDNVLPPGKVGEVSIRGENVTLGYANNPKANKENFTKRENYFRTGDQGYFDPEGFLVLTGRIKELINRGGEKISPIELDGIMLSHPKIDEAVAFGVPDDMYGQVVQAAIVLKKGEKMTYEELVNFLKKHLASFKIPTKVYFVDKLPKTATGKIQRRVIAETFAKSSRNKSKL
notes: Pcs60p, peroxisomal oxalyl-CoA synthetase of S. cerevisiae, a PTS1-protein; GST tag removed with thrombin; native MS mass of the monomer printed as 60.632 kDa; also called wildtype Pcs60p; GSTPcs60p (before cleavage); source: E. coli BL21 RIL (DE3), purified (GSTrap, thrombin cleavage, SEC); not shown: GST, N-terminal, cleaved

In data set [1] the target is T3, Pex5p^2D (Saccharomyces cerevisiae, UniProt P35056, S507D/S523D).
T3 construct: 10 μM full-length Pex5p^WT and Pex5p^2D mutant as a sample in the cell; made in house; host or cells: E. coli BL21 RIL (DE3)
As to the kind of experiment: biochemical. Type of data set: binding. The source says: The elution of proteins was monitored at 280 nm.

Data set [2] deals with the molecule itself. The experiment in a line: native MS; single purified proteins in 200 mM ammonium acetate pH 6.8; collision energy 100 V.
Data set [3] has as its target B1. As to the kind of experiment: fluorescence polarisation; fluorescence anisotropy; 10 nM FITC-labelled Idp3p peptide, serial dilutions of Pex5p variant 160 nM to 38 µM; 50 mM HEPES pH 7.5, 150 mM NaCl; one-site binding-saturation fit. To be noted: both partners purified. On the technique in general: Polarisation of emitted light reports the rotation of a fluorescent probe.

Data set [4] deals with B2. The experiment in a line: native MS; Pex5p variant (7.5 µM) mixed with Pcs60p (5 µM), 5 min on ice; 200 mM ammonium acetate pH 6.8; collision energy 100 V. To be noted: both partners purified.
Data set [5] has as its target B1. The description is as above. Particulars: both partners purified.
In data set [6] the target is T1, Pex5p-S507/523D, recombinant …. The experiment in a line: ITC; representative single titration. (In general: Isothermal titration calorimetry measures the heat released or taken up as one component is titrated into another.)
For data set [7], the target named is T2, Pex5p wildtype, recombinant His6-tagged …. The experiment in a line: ITC; representative single titration.
Data set [8] deals with B2. As to the kind of experiment: ITC; MicroCal VP-ITC, 25 °C; 10 µM Pex5p variant in the cell, 100 µM Pcs60p as titration ligand, 30 injections of 10 µl; 50 mM HEPES pH 7.5, 150 mM NaCl. To be noted: both partners purified.
In data set [9] the target is B1. Described as above. To be noted: both partners purified.

Residue numbers refer to the chain shown, from its start. Names may count otherwise. “And” between values parts separate entries of the source, which are not always exact repeats. Equal values may be shown once. Ends that are not written are not given here. Peptide text beside a SMILES is read from it. * marks the point of attachment. FITC = O=C1OC2(c3ccc(O)cc3Oc3cc(O)ccc32)c2ccc(NC(=S)*)cc21

Take `CC(C)C[C@H](NC(=O)[C@H](CCCNC(=N)N)NC(=O)[C@H](CO)NC(=O)[C@H](CO)NC(=O)[C@H](CCCNC(=N)N)NC(=O)[C@H](CCCCN)NC(=O)[C@@H](NC(=O)[C@H](CCCNC(=N)N)NC(=O)[C@H](C)NC(=O)[C@H](Cc1ccc(O)cc1)NC(=S)Nc1ccc2c(c1)C(=O)OC21c2ccc(O)cc2Oc2cc(O)ccc21)C(C)C)C(=O)O` [Lys1p peptide] ({FITC}-YARVKRSSRL-OH): the affinity in data set [1], expressed as Kd, was 3690 ± 1580 nM.

Molecule `CC(C)C[C@H](NC(=O)[C@H](CCCCN)NC(=O)[C@H](C)NC(=O)[C@H](CCCCN)NC(=O)[C@H](CCCNC(=N)N)NC(=O)[C@H](CCCCN)NC(=O)[C@H](CC(N)=O)NC(=O)[C@H](CCC(=O)O)NC(=O)[C@H](CC(N)=O)NC(=O)[C@H](Cc1ccc(O)cc1)NC(=S)Nc1ccc2c(c1)C(=O)OC21c2ccc(O)cc2Oc2cc(O)ccc21)C(=O)O` [Cat2p peptide] ({FITC}-YNENKRKAKL-OH) came in with a Kd in data set [1] of 897 nM.

On to B1, for which, in [2], the “stoichiometry N” value is 2.

Take {FITC}-YNEDKKGMCKL [Idp3p nonapeptide, FITC-YNEDKKGMCKL]: in data set [3], the Kd was 5540 nM.

Regarding B2, in [2], the “stoichiometry N” value is 2.

On to B3, for which the “stoichiometry N” value is 1 Pcs60p per Pex5p and 2 Pcs60p per Pex5p (1:2 receptor-cargo complex) and 1 Pcs60p per Pex5p (2:2 receptor-cargo complex) in data set [4]; 1 Pcs60p per Pex5p (2:2 receptor-cargo complex) and 1 Pcs60p per Pex5p and 2 Pcs60p per Pex5p (1:2 receptor-cargo complex) in [5]. Also, the Kd in data set [6] is 271 nM; in data set [7], 13 nM; in data set [8], 338 nM; in data set [9] it was 17.4 nM.

One may read the Kd as the equilibrium constant for the complex coming apart. Broadly, the stoichiometry N is a count of units in the complex or per binding partner.
